Consider 2 substances from patent US20060034860A1.

Assay [1] concerns the target HIV-1 protease, bait PR_v1 (HIV-1 isolate YU2) (UniProt P35963). As to the kind of experiment: cell-based or functional assay.
Assay [2] concerns the target HIV-1 Integrase (IN), bait IN (HIV-1 isolate YU2) (UniProt P35963). As to the kind of experiment: cell-based or functional assay.

Sequence of HIV-1 protease, bait PR_v1 (HIV-1 isolate YU2) (P35963 489-587 limits assumed): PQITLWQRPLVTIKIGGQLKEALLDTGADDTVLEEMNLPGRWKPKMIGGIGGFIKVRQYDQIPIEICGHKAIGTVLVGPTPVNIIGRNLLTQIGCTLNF
Sequence of HIV-1 Integrase (IN), bait IN (HIV-1 isolate YU2) (P35963 1148-1435 limits assumed): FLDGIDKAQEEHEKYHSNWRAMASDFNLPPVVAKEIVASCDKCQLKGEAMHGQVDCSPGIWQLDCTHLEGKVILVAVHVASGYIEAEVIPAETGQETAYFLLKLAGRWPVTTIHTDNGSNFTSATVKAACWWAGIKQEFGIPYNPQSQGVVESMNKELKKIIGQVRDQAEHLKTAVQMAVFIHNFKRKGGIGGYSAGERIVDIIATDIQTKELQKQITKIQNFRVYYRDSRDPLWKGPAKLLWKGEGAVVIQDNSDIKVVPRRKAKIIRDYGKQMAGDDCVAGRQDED

With “Human AIM1 (prey030612), Absent in Melanoma, prey fragments, Q9Y4K1 1-2131”, the inhibition of HIV-1 infection (p24 antigen in supernatant) after siRNA against AIM1, HeLa cells with CD4 and CCR5 in assay [1] was 30%. In assay [2], “LEDGF p75 isoform (PSIP2), prey fragments (from UniProt O75475 340-417)” had an inhibition of HIV replication (p24 antigen in supernatant) after siRNA against LEDGF, HeLa cells with CD4 and CCR5 of 84%.
